According to patent US20220306762A1 (CRYSTAL BIOSCIENCE, published 2022):

Key:
[1] = target: T1, His-tagged human CD38 (ACRO Biosystems cat #CD8-H5224) (human, UniProt P28907 43-300); experiment: SPR, captured scFv-Fc, His-CD38 analyte;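 further: SPR on a Carterra LSA, scFv-Fc captured by anti-human Fc on HC30M chip, His-tagged CD38 (human, mouse, cynomolgus) flowed as analyte in eight 1:2 steps from 400 nM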
T1 construct: bought recombinant protein with His tag

[2] = target: T2, His-tagged cynomolgus monkey CD38 (ACRO Biosystems cat #CD8-05223) (cynomolgus monkey, UniProt Q5VAN0 43-301); experiment: SPR, captured scFv-Fc, His-CD38 analyte;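 further: SPR on a Carterra LSA, scFv-Fc captured by anti-human Fc on HC30M chip, His-tagged CD38 (human, mouse, cynomolgus) flowed as analyte in eight 1:2 steps from 400 nM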
T2 construct: bought recombinant protein with His tag

[3] = target: T3, human CD38 on transiently transfected Expi293 cells (Origene #SC321273) (human, UniProt P28907 1-300); experiment: flow cytometry, transfected Expi293 cells;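 further: antibody binding to Expi293 cells transiently expressing human or murine CD38, antibodies applied at 10 ug/ml for 60 min on ice, read by flow cytometry as percent gated cells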
T3 construct: whole, on cells; also called Human (FACs)

[4] = target: T4, murine CD38 on transiently transfected Expi293 cells (Origene MC208001) (murine, UniProt P56528 1-304); experiment: flow cytometry, transfected Expi293 cells;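 further: antibody binding to Expi293 cells transiently expressing human or murine CD38, antibodies applied at 10 ug/ml for 60 min on ice, read by flow cytometry as percent gated cells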
T4 construct: whole, on cells; also called Murine (FACs)
T4 sequence (looked up): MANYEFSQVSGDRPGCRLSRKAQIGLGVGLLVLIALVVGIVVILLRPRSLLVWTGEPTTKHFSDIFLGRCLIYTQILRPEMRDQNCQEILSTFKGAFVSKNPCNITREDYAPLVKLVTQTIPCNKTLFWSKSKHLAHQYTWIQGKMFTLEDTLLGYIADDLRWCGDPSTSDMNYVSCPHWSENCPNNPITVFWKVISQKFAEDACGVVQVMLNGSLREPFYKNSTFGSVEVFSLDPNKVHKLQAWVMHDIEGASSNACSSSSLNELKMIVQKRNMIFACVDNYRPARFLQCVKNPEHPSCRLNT

[5] = target: T5, His-tagged mouse CD38 (ACRO Biosystems #CD8-M5223) (mouse, UniProt P56528 45-304); experiment: ELISA, coated His-CD38
T5 construct: bought recombinant protein with His tag; also called Murine
T5 sequence (looked up): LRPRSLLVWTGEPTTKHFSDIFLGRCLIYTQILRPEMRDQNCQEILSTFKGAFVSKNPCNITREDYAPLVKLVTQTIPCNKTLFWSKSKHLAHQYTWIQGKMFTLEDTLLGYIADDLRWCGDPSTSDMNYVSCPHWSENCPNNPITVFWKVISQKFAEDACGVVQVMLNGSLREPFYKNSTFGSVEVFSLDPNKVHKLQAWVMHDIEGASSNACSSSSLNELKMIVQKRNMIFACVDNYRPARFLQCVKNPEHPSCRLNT

[6] = target: T1, His-tagged human CD38 (ACRO Biosystems …); experiment: ELISA, coated His-CD38
[7] = target: T2, His-tagged cynomolgus monkey CD38 (ACRO …); experiment: ELISA, coated His-CD38

Binder	Kd [1] [nM]	Kd [2] [nM]	FACs 10 ug/ml (percent gated) [3] [%]	FACs 10 ug/ml (percent gated) [4] [%]	ELISA 1 ug/ml [5]	ELISA 1 ug/ml [6]	ELISA 1 ug/ml [7]
40596p1.E4 (scFv, V domains shown, tested as scFv-Fc supernatant) VH: EVQLLESGGGLVQPGGSLRLSCAASGFDFSGSAMSWVRQAPGKGLEYVAGLGWSGSFIYYADSVKGRSTISRDNSKNTLYLQLNSLRAEDTAVYYCARNPGFGEMDVWGQGTTVTVSS VL: EIVLTQSPGSLSLSPGERATLSCRASQTVGSNLAWYQQKPGQAPRLLIYGASTRATDIPDRFSGSGSGTEFTLTISSLQSEDFAVYYCQQYNSWPPLTFGGGTKVEIK	56.9	17.8	64.2	34	1.72	1.93	1.77
40769p1.1.A2 (scFv, V domains shown, tested as scFv-Fc supernatant) VH: EVQLLESGGGLVQPGGSLRLSCAASGFLFDDYGMSWVRQAPGKGLEWVSAISYKGGSTYYADSVKGRFTISRDNSKNTLYLQMSSLRAEDTAVYYCAKDHKWNYYGMDVWGQGTTVTVSS VL: QSVLTQPPSASGTPGQRVTISCSGSTSNIGNDNYVSWYQQLPGTAPRLLIYKDDQRPSGVPDRFSGSKSGTSASLAISGLQSEDEADYYCGTWDDRLNAWVFGGGTKLTVL	0.319	0.35	78.5	2.65	0.049	1.61	1.73
40769p1.1.B10 (scFv, V domains shown, tested as scFv-Fc supernatant) VH: EVQLLESGGGLVQPGGSLRLSCTASGITFSRFNMFWVRQAPGKGLEFVASIRDDGSWTYYADSVKGRFTISRDNSKNTLYLQMNSLRAEDTAVYYCAKDYNSKDFIYHYVMDVWGQGTTVTVSS VL: QSVLTQPPSASGTPGQRVTISCSGRNSNIGNNVVNWYQQLPGTAPKLLIYRNQERPSGVPDRFSGSKSGTSASLAISGLQSEDEADYYCSTWDDSLNGWVFGGGTKLTVL	8.02	96400	76.4	0.38	0.049	1.5	2.05
40769p1.1.B8 (scFv, V domains shown, tested as scFv-Fc supernatant) VH: EVQLLESGGGLVQPGGSLRLSCAASGFTFEDYAMSWVRQAPGKGLEWVSVISSKGGSTSNADSVKGRFTISRDNSKNTLYLQMNSLRAEDTAVYYCAKGMERQYYSYNAMDVWGQGTTVTVSS VL: QSVLTQPPSASGTPGQRVTISCSGSNSNIDVDYVYWYQQLPGTAPRLLIYKDDQRPSGVPDRFSGSKSGTSASLAISGLQSEDEADYYCATWDDNLNSWLFGGGTKLTVL	0.101	1.62	81.4	0.04	0.048	1.64	1.75
40769p1.1.B12 (scFv, V domains shown, tested as scFv-Fc supernatant) VH: EVQLLESGGGLIQPGGSLRLSCTASGFDFSSYGMHWVRQAPGKGLEWVGIISDSGGTTYYADSVKGRFTISRDNSKNTMYLQMNSLRAEDTALYYCASYIMDVWGQGITVTVSS VL: QSVLTQPPSASGTPGQRVTISCSGSSSNVGGNSVYWYQQLPGTAPKLLFYGNHRRPSGVPDRFSGSKSGTSASLAISGLQSEDEADYYCAVWDDSLNAWVFGGGTKLTVL	32.4	135	71.1	31.9	0.472	1.56	1.91
40769p1.1.E2 (scFv, V domains shown, tested as scFv-Fc supernatant) VH: EVLLLESGGGLVQPGGSLRLSCAASGFTFSDYWMSWVRQAPGKGLEWVSTISISAGIIYYADSVKGRFTISRDNSKNTLYLQMNSLRAEDTAVYYCAKDNWNDYYGMDVWGQGTTVTVSS VL: QSVLTQPPSASGTPGQRVTMSCSGNNQNIRDNYVYWYQQVPGTAPKLLIYKDDQRPSGVPDRFSGSKSGTSASLAISGLQSEDEADYYCATWDGSLKARVFGGGTKLTVL	3.23	4.4	82	–	–	1.65	1.98
40769p1.1.G5 (scFv, V domains shown, tested as scFv-Fc supernatant) VH: EVQLLESGGGFVQPGGSLRLSCAASGFNFNNAWMNWVRQAPGKGLEWVGIINGDGTNTYYADSVKGRFTISRDNSKNTLYLQMSSLRAEDTAIYYCARDNKLNDYYYAMDVWGQGTTVTV VL: QSVLTQPSSASGTPGQRVTISCSGGSSNIHANYVYWYQQLPGTAPKLLIYRNSQRPSGVPDRFSGSKSGTSASLAISGLQSEDEADYYCGTWDNILNVWVFGGGTKLTVL	3.11	11.5	84.4	–	–	1.72	2.01
40769p1.1.G10 (scFv, V domains shown, tested as scFv-Fc supernatant) VH: EVQLLESGGGLVQPGGSLRLSCAASGFTFSDYWMNWVRQAPGKGLEWVSTISSGGSMIYHADSVKGRFTISRDNSKNTLYLQMNSLRPEDTAVYYCAKDNWNDYYGMDVWGQGTTVTVSS VL: QSVLTQPPSASGTPGQRVNISCSGSSSNIRYNYVYWYQQVPGTAPKLLIYKDDQRPSGVPDRFSGSESGTSASLAISGLQSEDEADYYCATWDGSLNARVFGGGTKLTVL	78.9	154	77.5	–	–	1.75	2.11
40769p1.1.H1 (scFv, V domains shown, tested as scFv-Fc supernatant) VH: EVQLLESGGGLVQPGGSLRLSCAASGFTFSDYWMNWVRQAPGKGLEWVSTISSGGSMIYHADSVKGRFTISRDNSKNTLYLQMNSLRPEDTAVYYCAKDNWNDYYGMDVWGQGTTVTVSS VL: QSVLTQPPSASGTPGQRVNISCSGSSSNIRYNYVYWYQQVPGTAPKLLIYKDDQRPSGVPDRFSGSKSGTSASLAISELQSEDEADYYCATWDGSLNARVFGGGTKLTVL	85.7	59.5	76.2	3.13	0.049	1.86	2.05
40769p1.1.H3 (scFv, V domains shown) VH: EVQLLESGGGLVQPGGSLRLSCAASGFAFNDYLMSWVRQAPGKGLEWVSTISWSGGSTYYADSVKGRFTISRDNSKNTLYLQMNSLRAEDTALYYCARDRYRYNYYYFMDVWGQGTTVTV VL: QSVLTQPPSASGTPGQRVTISCSGSTSDSPYDRIDWYQQLPGTAPKLLIYKDDQRPSGVPDRFSGSKSGTSASLAISGLQSEDEADYYCATWDAMLSAWVFGGGTKLTVL	–	–	82.5	3.84	0.049	–	–
40769p1.2.E3 (scFv, V domains shown, tested as scFv-Fc supernatant) VH: EVQLLESGGDLVQPGGSLRLSCGASGFTFSDHYMSWVRQAPGKGLEWVADISARGSNTWYADSVKGRFTISRDNSENTLYLQMNSLRAEDTAVYYCAKNWNYNYGMDVWGQGTTVTVSS VL: QSVLTQAPSASGTPGQRVTISCSGSSIQNNYVSWYQQLPGTAPKLLIYRNFERPSGVPDRFSASKSGTSASLAISGLQSEDEADYYCASWDDSLNWVFGGGTKLTVL	2.24	2.11	80.5	–	–	1.59	1.7
40769p1.2.B4 (scFv, V domains shown, tested as scFv-Fc supernatant) VH: EVQLLESGGDLVQPGGSLRLSCGASGFTFSDHYMSWVRQAPGKGLEWVADISARGSNTWYADSVKGRFTISRDNSENTLYLQMNSLRAEDTAVYYCAKNWNYNYGMDVWGHGTTVTVSS VL: QSVLTQAPSASGTPGQRVTISCSGSSIQNNYVSWYQQLPGTAPKLLIYRNFERPSGVPDRFSASKSGTSASLAISGLQSEDEADYYCASWDDSLNWVFGGGTKLTVL	2.38	2.34	81	–	–	1.55	1.73
40769p1.2.F9 (scFv, V domains shown, tested as scFv-Fc supernatant) VH: EVQLLESGGDLVQPGGSLRLSCGASGFTFSDHYMSWVRQAPGKGLEWVADISARGSNTWYADSVKGRFTISRDNSENTLYLQMNSLRAEDTAVYYCAKNWNYNYGMDVWGQGTTVTVSS VL: QSVLTQAPSASGTPGQRVTISCSGSSIQNNYVSWYQQLPGTAPKLLIYRNFERPSGVPDRFSASKSGTSASLAISGLQSGDEADYYCASWDDSLNWVFGGGTKLTVL	17.1	–	79.4	–	–	1.47	1.56
